{"source": "patent US20240318157A1", "about": "“Neurotensin Variants And Tagged Proteins Comprising Neurotensin Or Sortilin Propeptide” (Amicus Therapeutics, Inc., priority 2021, published 2024)", "biological_target": "T1, extracellular soluble domain of sortilin, residues 78-755 (Homo sapiens, UniProt Q99523)", "T1 construct": "the extracellular soluble domain of sortilin, residues 78-755, was expressed in Expi293F cell line; made in house; host or cells: Expi293F", "assay": "microplate binding assay, enzymic activity of sortilin-bound GAA tagged protein", "text": "FIG. 2. α-D-glucopyranoside activity of sortilin-bound GAA tagged protein. Extracellular soluble sortilin domain with a C-terminal TwinStrep tag for immobilized on a 96-well microplate. […] A fluorogenic 4-methylumbelliferyl-α-D-glucopyranoside substrate was used to measure α-D-glucopyranoside activity of the sortilin-bound tagged proteins.\nFor a microplate binding assay, the extracellular soluble domain of sortilin, residues 78-755, was expressed in Expi293F cell line (using Expi293 Expression System; Thermo Fisher, A14635) with a C-terminal TwinStrep affinity tag. Harvests were collected after 5 days. Conditioned media was incubated with StrepTactin XT coated microplates (IBA, 2-4101-001) for 1 hour to immobilize sortilin to the plates. After several washes, wells coated with sortilin were incubated with varying doses of NT-GAA, GAA-NT or GAA diluted into PBS for 30 minutes. The unbound protein was then washed away. The α-D-glucopyranoside activity of the bound GAA tagged protein was measured using a fluorogenic substrate, 4-methylumbelliferyl-α-D-glucopyranoside, at pH 4.8. […] The inflection point in both binding curves indicates bivalency of sortilin for neurotensin."}
{"substance": "GAA: GAA with no NT tag; lysosomal alpha-glucosidase (RefSeq: NM_000152.5) [reference compound]", "values": [{"measurement": "α-D-glucopyranoside activity of sortilin-bound protein", "setting": "immobilized sortilin, 30 minutes in PBS, 4-methylumbelliferyl-α-D-glucopyranoside, pH 4.8, FIG. 2", "value": "no α-D-glucopyranoside activity"}, {"measurement": "binding to sortilin", "setting": "inferred from absence of activity in sortilin-coated wells, FIG. 2", "value": "did not bind to sortilin"}]}
